Laboratory results published in the RNAGym collection of RNA variant scans (doi:10.1073/pnas.2313332121).

B1: TPR t1 (parent)
chain: GACCAAUCUGCCCUCAGAGCUCGAGAACAUCUUCGGAUGCAGAGGAGGCAGGCUUCGGUGGCGCGAUAGCGCCAACGUCCUCAACCUCCAAUGCAUCCCACCACAUGAUGAUGCCUGAAGAGCCUUGGUUUUUUG

Variants of: B1
Experiment: polymerase ribozyme fitness, log enrichment relative to wild type (log ratio); higher = more active; in vitro selection for triplet polymerase activity
Outline: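 Frozen incubation at −7 °C formed the core of a single, triplicate in vitro selection round applied to PCR-built, transcribed mutant libraries of each subunit of a heterodimeric triplet polymerase ribozyme. Extended constructs were gel-excised, captured with streptavidin beads and amplified by RT-PCR, and input and output libraries were Illumina-sequenced with a filter of ≥10 input reads and ≥1 read per output. Fitness is the logarithm of genotype enrichment relative to wild-type enrichment, with inverse-variance-weighted replicate averaging, and the logarithm is base 2.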

Variant | polymerase ribozyme fitness (log ratio)
GACCAAUCUGCCCUCAGAGCUCGAGAACAUCUUCGGAUGCAGAGGAGGCAGGCUUCGGUGUCGCGAUAGCGCCAACGUCCUCAACCUCCAAUGCAUCCCACCACAUGAUGAUGCCUGAAGAGCCUUGGUUUUUUU [G61U G135U] | -1.65
GACCAAUCUGCCCUCAGAGCUCGAGAACAUCUUCGGAUGCAGAGGAGGCAGGCUUCGGUGUCGCGAUAGCGCCAACGUCCUCAACCCCCAAUGCAUCCCACCACAUGAUGAUGCCUGAAGAGCCUUGGUUUUUUG [G61U U87C] | 0.519
GACCAAUCUGCCCUCAGAGCUCGAGAACAUCUUCGGAUGCAGAGGAGGCAGGCUUCGGUGUCGCGAUAGCGCCAACGUCCUCAACCUCCAAUGCAUCCCACCACAUGAUGACGCCUGAAGAGCCUUGGUUUUUUG [G61U U112C] | 0.845
GACCAAUCUGCCCUCAGAGCUCGAGAACAUCUUCGGAUGCAGAGGAGGCAGGCUUCGGUGUCGCGAUAGCGCCAACGUCCAUAACCUCCAAUGCAUCCCACCACAUGAUGAUGCCUGAGGAUCCAUGGCUUUUUG [G61U U81A C82U A119G G122U U125A U129C] | -1.8
GACCAAUCUGCCCUCAGAGCUCGAGAACAUCUUCGGAUGCAGAGGAGGCAGGCUUCGGUGGAGCGAUAGCGCGAACGUCCUCAACCUCCAAUGCAUCCCACCACAUGAUGAUGCCUCAAGAGCCUUGGGUUUUUG [C62A C73G G117C U129G] | -6.43
GACCAAUCUGCCCUCAGAGCUCGAGAACAUCUUCGGAUGCAGAGGAGGCAGGCUUCGGUGUCGCGAUAGCGCCAACGCCCUCAACCUCCAAUGCAUCCCACCACAUGAUGAUGCCAGAAGAGCCUUGGUUUUUUG [G61U U78C U116A] | -2.17
GACCAAUCUGCCCUCAGAGCUCGAGAACAUCUUCGGAUGCAGAGGAGGCAGGCUUCGGUGUCGCGAUAGCGCCAACGUCCUCAACCUCCAAUGCAUCCCACCACACGAUGAUGCCUGAAGAGCCUUGGUUUUUUG [G61U U106C] | 0.11
GACCAAUCUGCCCUCAGAGCUCGAGAACAUCUUCGGAUGCAGAGGAGGCAGGCUUCGGUGGAGCGAUAGCGCCAACGUCCUCAACCUCCACUGCAUCGCACCACAUGAUGCUGCUUGUAGAACCUGGGUUUUUUG [C62A A91C C98G A111C C115U A118U G122A U126G] | -7.7
GACCAAUCUGCCCUCAGAGCUCGAGAACAUCUUCGGAUGCAGAGGAGGCAGGCUUCGGUGUCGCGAUAGCGCCAACGCCCUCAACCUCCAAUGCAUCCCACCACAUGAUGAUCCCUGAAGAGCCUUGGUGUUUUG [G61U U78C G113C U130G] | -2.86
GACCAAUCUGCCCUCAGAGCUCGAGAACAUCUUCGGAUGCAGAGGAGGCAGGCUUCGGUGUCGCGAUAGCGCCAACGUCCUCAACCUCCAAUGCAUCCCACCACAUGAAGAUGCCUGAAGAGCCUUGGUUUUUUG [G61U U109A] | -3.77
GACCAAUCUGCCCUCAGAGCUCGAGAACAUCUUCGGAUGCAGAGGAGGCAGGCUUCGGUGUCGCGAUAGCGCCAACGUCCUCAACCUCCAAUGCAUCCCACCACAUGAUGAUGCCUGAAGAGCCUUGGCUUUUUG [G61U U129C] | -0.253
GACCAAUCUGCCCUCAGAGCUCGAGAACAUCUUCGGAUGCAGAGGAGGCAGGCUUCGGUGUCGCGAUAGCGCCAACGUCCUCAACCUCCAAUGCAUCCCACCACAUGAUGAUGCCUGAAGAGCCUUGGAUUUUUG [G61U U129A] | -1.21
GACCAAUCUGCCCUCAGAGCUCGAGAACAUCUUCGGAUGCAGAGGAGGCAGGCUUCGGUGGAGCGAUAGCGCCAACGUCCUCAACCUCCAAUGCAUCCCACCACAUGAUGAUGCCUGAAGUGCCUUGGUUUUUUG [C62A A121U] | 1.32
GACCAAUCUGCCCUCAGAGCUCGAGAACAUCUUCGGAUGCAGAGGAGGCAGGCUUCGGUGUCGCGAUAGCGCCAACGUCCUCAACCUCCAACGCAUCCCACCACAUGAUGAUGCCUGAAGAGCCUUGGUUUUUUG [G61U U92C] | -1.84
GACCAAUCUGCCCUCAGAGCUCGAGAACAUCUUCGGAUGCAGAGGAGGCAGGCUUCGGUGGAGCGAUAGCGCCAACGUCCUCAACCUCCAAUGCAUCCCACCACAUGAUGAUGCCUGCAGAGCCUUGGUUUUUUG [C62A A118C] | -2.96
GACCAAUCUGCCCUCAGAGCUCGAGAACAUCUUCGGAUGCAGAGGAGGCAGGCUUCGGUGUCGCGAUAGCGCCAACGUCCUCAACCUCCAAUGCAUCCCACCACAUGAUGAUGCCUGAAGAGCCUUGGUGUUUUG [G61U U130G] | -0.614
GACCAAUCUGCCCUCAGAGCUCGAGAACAUCUUCGGAUGCAGAGGAGGCAGGCUUCGGUGGAGCGAUAGCGGCAACGUCCUCAACCUCCAAUGCAUCCCACCACAUGAUGAUGCCUGAAGAGCCUUGGUUUUUUG [C62A C72G] | -2.09
GACCAAUCUGCCCUCAGAGCUCGAGAACAUCUUCGGAUGCAGAGGAGGCAGGCUUCGGUGGAGCGAUAGCGUCAACGUCCUCAACCUCCAAUGCAUCCCACCACAUGAUGAUGCCUGAAGAGCCUUGGUUUUUUG [C62A C72U] | -1.74
GACCAAUCUGCCCUCAGAGCUCGAGAACAUCUUCGGAUGCAGAGGAGGCAGGCUUCGGUGGAGCGAUAGCGCCAACGUCCUCAACCUCCAGUGCAUCCCACCACAUGAUGAUGCCUGAAGAGCCUUGGUUUUUUG [C62A A91G] | -2.78
GACCAAUCUGCCCUCAGAGCUCGAGAACAUCUUCGGAUGCAGAGGAGGCAGGCUUCGGUGUCGCGAUAGCGCCAACGUCCUCAACCUCCAAUGCAUCCCACCACAUGAUGAUCCCUGAAGAGCCUUGGUUUUUUG [G61U G113C] | -1.82
GACCAAUCUGCCCUCAGAGCUCGAGAACAUCUUCGGAUGCAGAGGAGGCAGGCUUCGGUGUCGCGAUAGCGCCAACGUCCUCAACCUCCAAUGCAUCCCACCACAUGAUGAUGCCUGAAGAGCCUUCGUUUUUUG [G61U G127C] | -0.698
